Among the data in article PMC12102759 (2025) are screen value values, retold here.

The chains are these.
B1: AMOTL2 peptide 66-81 (Angiomotin-like protein 2), 16-mer library wild type / TNKS ANK (TNKS 12 ANK repeats, residues 174-649) (parent complex)
chain 1: LQQATRQEPQGQEHQG
chain 2: TGVPAVSGALRELLEACRNGDVSRVKRLVDAANVNAKDMAGRKSSPLHFAAGFGRKDVVEHLLQMGANVHARDDGGLIPLHNACSFGHAEVVSLLLCQGADPNARDNWNYTPLHEAAIKGKIDVCIVLLQHGADPNIRNTDGKSALDLADPSAKAVLTGEYKKDELLEAARSGNEEKLMALLTPLNVNCHASDGRKSTPLHLAAGYNRVRIVQLLLQHGADVHAKDKGGLVPLHNACSYGHYEVTELLLKHGACVNAMDLWQFTPLHEAASKNRVEVCSLLLSHGADPTLVNCHGKSAVDMAPTPELRERLTYEFKGHSLLQAAREADLAKVKKTLALEIINFKQPQSHETALHCAVASLHPKRKQVTELLLRKGANVNEKNKDFMTPLHVAAERAHNDVMEVLHKHGAKMNALDTLGQTALHRAALAGHLQTCRLLLSYGSDPSIISLQGFTAAQMGNEAVQQILSESTPIRTSD
B2: AMOTL2 peptide 64-79 (Angiomotin-like protein 2), 16-mer library wild type / TNKS ANK (TNKS 12 ANK repeats, residues 174-649) (parent complex)
chain 1: QVLQQATRQEPQGQEH
chain 2: B1 chain 2

The variants in one assay derive from B1. Nature of the assay: proteomic peptide phage display deep mutational scan (ProP-PD DMS): M13 P8 16-mer library selected against immobilised GST-tagged bait for four days (rounds), NGS of the eluted pools per day and pseudo-replica; bait immobilised on MaxiSorp plates (10 µg), library pre-cleared on GST, 2 h binding at 4 °C, five washes; one round per day, days 1-4; value from days 2 and 3.
On to chain 1 LQQATRQEPWGQEHQG, for which the screen value is 0.000745 average fractional NGS count over selection days 2 and 3 (reads of this peptide / all reads for the bait, averaged over ….
The same measure, in the same setting: the same measure for chain 1 LQQATRQEPEGQEHQG: 0.000182 average fractional NGS count over selection days 2 and 3 (reads of this peptide / all reads for the bait, averaged over …; for chain 1 LQQATRQEPLGQEHQG: 0.00347 average fractional NGS count over selection days 2 and 3 (reads of this peptide / all reads for the bait, averaged over …; for chain 1 LGQATRQEPQGQEHQG: 0.00015 average fractional NGS count over selection days 2 and 3 (reads of this peptide / all reads for the bait, averaged over ….
Still for that read-out and setting: the same measure for chain 1 LVQATRQEPQGQEHQG: 0.000551 average fractional NGS count over selection days 2 and 3 (reads of this peptide / all reads for the bait, averaged over ….
Take chain 1 LAQATRQEPQGQEHQG: the screen value is 0.000379 average fractional NGS count over selection days 2 and 3 (reads of this peptide / all reads for the bait, averaged over ….
Turning to chain 1 LLQATRQEPQGQEHQG, the screen value is 0.00083 average fractional NGS count over selection days 2 and 3 (reads of this peptide / all reads for the bait, averaged over ….
On the same count and under the same terms, the same measure for chain 1 LIQATRQEPQGQEHQG: 0.000122 average fractional NGS count over selection days 2 and 3 (reads of this peptide / all reads for the bait, averaged over ….
On to chain 1 LSQATRQEPQGQEHQG, for which the screen value was 0.00082 average fractional NGS count over selection days 2 and 3 (reads of this peptide / all reads for the bait, averaged over ….
On to chain 1 LHQATRQEPQGQEHQG, for which the screen value is 0.00198 average fractional NGS count over selection days 2 and 3 (reads of this peptide / all reads for the bait, averaged over ….
The same measure, in the same setting: next, chain 1 LPQATRQEPQGQEHQG: 0.000458 average fractional NGS count over selection days 2 and 3 (reads of this peptide / all reads for the bait, averaged over ….
On the same count and under the same terms, next, chain 1 LYQATRQEPQGQEHQG: 0.000109 average fractional NGS count over selection days 2 and 3 (reads of this peptide / all reads for the bait, averaged over ….
As to chain 1 LKQATRQEPQGQEHQG, the screen value is 0.000265 average fractional NGS count over selection days 2 and 3 (reads of this peptide / all reads for the bait, averaged over ….
Take chain 1 LQQATRQEPQGYEHQG: the screen value is 0.000541 average fractional NGS count over selection days 2 and 3 (reads of this peptide / all reads for the bait, averaged over ….
As to chain 1 LQQATRQEPQGMEHQG, the screen value is 0.000359 average fractional NGS count over selection days 2 and 3 (reads of this peptide / all reads for the bait, averaged over ….
On the same count and under the same terms, the same measure for chain 1 LQQATRQEPQGIEHQG: 9.74e-05 average fractional NGS count over selection days 2 and 3 (reads of this peptide / all reads for the bait, averaged over ….
Consider chain 1 LQQATRQEPQGHEHQG, for which the screen value was 0.00103 average fractional NGS count over selection days 2 and 3 (reads of this peptide / all reads for the bait, averaged over ….
Turning to chain 1 LQQATRQEPQGLEHQG, the screen value was 0.000442 average fractional NGS count over selection days 2 and 3 (reads of this peptide / all reads for the bait, averaged over ….
Turning to chain 1 LQQATRQEPQGQEEQG, the screen value was 0.000155 average fractional NGS count over selection days 2 and 3 (reads of this peptide / all reads for the bait, averaged over ….
With chain 1 LQQATRQEPQGQEIQG, the screen value is 0.000314 average fractional NGS count over selection days 2 and 3 (reads of this peptide / all reads for the bait, averaged over ….
For the variant chain 1 LQQATRQEPQGQEAQG, the screen value is 0.00145 average fractional NGS count over selection days 2 and 3 (reads of this peptide / all reads for the bait, averaged over ….
On to chain 1 LQQATRQEPQGQEMQG, for which the screen value is 0.000405 average fractional NGS count over selection days 2 and 3 (reads of this peptide / all reads for the bait, averaged over ….
Take chain 1 LQQATRQEPQGQEWQG: the screen value is 0.00121 average fractional NGS count over selection days 2 and 3 (reads of this peptide / all reads for the bait, averaged over ….
Same read-out and setting: next, chain 1 LQQATRQEPQGQEVQG: 0.00237 average fractional NGS count over selection days 2 and 3 (reads of this peptide / all reads for the bait, averaged over …; chain 1 LQQATRQEPQGQELQG: 0.000412 average fractional NGS count over selection days 2 and 3 (reads of this peptide / all reads for the bait, averaged over ….
Same read-out and setting: the same measure for chain 1 LQQATRQEPQGQEFQG: 0.00233 average fractional NGS count over selection days 2 and 3 (reads of this peptide / all reads for the bait, averaged over …; for chain 1 LQQATRQEPQGQIHQG: 0.000226 average fractional NGS count over selection days 2 and 3 (reads of this peptide / all reads for the bait, averaged over …; for chain 1 LQQATRQEPQGQQHQG: 0.000235 average fractional NGS count over selection days 2 and 3 (reads of this peptide / all reads for the bait, averaged over ….
Still for that read-out and setting: next, chain 1 LQQATRQEPQGQMHQG: 0.000514 average fractional NGS count over selection days 2 and 3 (reads of this peptide / all reads for the bait, averaged over …; chain 1 LQQATRQEPQGQSHQG: 0.000101 average fractional NGS count over selection days 2 and 3 (reads of this peptide / all reads for the bait, averaged over …; chain 1 LQQATRQEPQGQAHQG: 0.000224 average fractional NGS count over selection days 2 and 3 (reads of this peptide / all reads for the bait, averaged over ….
Turning to chain 1 LQQATRQEPQGQVHQG, the screen value was 0.00131 average fractional NGS count over selection days 2 and 3 (reads of this peptide / all reads for the bait, averaged over ….
With chain 1 LQQATRQEPQGQLHQG, the screen value is 0.000144 average fractional NGS count over selection days 2 and 3 (reads of this peptide / all reads for the bait, averaged over ….
Same read-out and setting: the same measure for chain 1 LQQFTRQEPQGQEHQG: 0.000957 average fractional NGS count over selection days 2 and 3 (reads of this peptide / all reads for the bait, averaged over …; for chain 1 LQQMTRQEPQGQEHQG: 0.00014 average fractional NGS count over selection days 2 and 3 (reads of this peptide / all reads for the bait, averaged over …; for chain 1 LQQVTRQEPQGQEHQG: 0.000321 average fractional NGS count over selection days 2 and 3 (reads of this peptide / all reads for the bait, averaged over ….
The same measure, in the same setting: next, chain 1 LQQYTRQEPQGQEHQG: 0.00172 average fractional NGS count over selection days 2 and 3 (reads of this peptide / all reads for the bait, averaged over …; chain 1 LQQSTRQEPQGQEHQG: 0.000138 average fractional NGS count over selection days 2 and 3 (reads of this peptide / all reads for the bait, averaged over ….
On to chain 1 LQQTTRQEPQGQEHQG, for which the screen value is 0.000212 average fractional NGS count over selection days 2 and 3 (reads of this peptide / all reads for the bait, averaged over ….
With chain 1 LQQGTRQEPQGQEHQG, the screen value was 0.00149 average fractional NGS count over selection days 2 and 3 (reads of this peptide / all reads for the bait, averaged over ….
On the same count and under the same terms, next, chain 1 LQQWTRQEPQGQEHQG: 0.000419 average fractional NGS count over selection days 2 and 3 (reads of this peptide / all reads for the bait, averaged over ….
On the same count and under the same terms, the same measure for chain 1 LQQDTRQEPQGQEHQG: 0.000175 average fractional NGS count over selection days 2 and 3 (reads of this peptide / all reads for the bait, averaged over ….
The same measure, in the same setting: next, chain 1 LQQHTRQEPQGQEHQG: 0.000353 average fractional NGS count over selection days 2 and 3 (reads of this peptide / all reads for the bait, averaged over …; chain 1 LQQATRQDPQGQEHQG: 0.000313 average fractional NGS count over selection days 2 and 3 (reads of this peptide / all reads for the bait, averaged over …; chain 1 LQQATRQFPQGQEHQG: 0.00124 average fractional NGS count over selection days 2 and 3 (reads of this peptide / all reads for the bait, averaged over ….
As to chain 1 LQQATRQLPQGQEHQG, the screen value was 0.000201 average fractional NGS count over selection days 2 and 3 (reads of this peptide / all reads for the bait, averaged over ….
The same measure, in the same setting: next, chain 1 LQQATRQWPQGQEHQG: 0.000174 average fractional NGS count over selection days 2 and 3 (reads of this peptide / all reads for the bait, averaged over …; chain 1 LQQATRQMPQGQEHQG: 0.000135 average fractional NGS count over selection days 2 and 3 (reads of this peptide / all reads for the bait, averaged over ….
The same measure, in the same setting: next, chain 1 LQQATRQAPQGQEHQG: 0.000174 average fractional NGS count over selection days 2 and 3 (reads of this peptide / all reads for the bait, averaged over …; chain 1 LQQATRQTPQGQEHQG: 0.00026 average fractional NGS count over selection days 2 and 3 (reads of this peptide / all reads for the bait, averaged over …; chain 1 LQQATRQVPQGQEHQG: 0.000436 average fractional NGS count over selection days 2 and 3 (reads of this peptide / all reads for the bait, averaged over ….
On the same count and under the same terms, next, chain 1 LQQATRQPPQGQEHQG: 0.00018 average fractional NGS count over selection days 2 and 3 (reads of this peptide / all reads for the bait, averaged over …; chain 1 LQQATRQQPQGQEHQG: 0.000434 average fractional NGS count over selection days 2 and 3 (reads of this peptide / all reads for the bait, averaged over ….

Variants of B2 are the subject of another assay. Described as above.
In the case of chain 1 QVLQQATRQEPQGEEH, the screen value is 0.000547 average fractional NGS count over selection days 2 and 3 (reads of this peptide / all reads for the bait, averaged over ….
For chain 1 QVLQQATRQEPQGQED, the screen value was 0.000297 average fractional NGS count over selection days 2 and 3 (reads of this peptide / all reads for the bait, averaged over ….
Same read-out and setting: the same measure for chain 1 QGLQQATRQEPQGQEH: 0.000586 average fractional NGS count over selection days 2 and 3 (reads of this peptide / all reads for the bait, averaged over ….
